Assay: soluble on expression in E. coli; label from the status in PepcDB or PDB records
For “MGSDKIHHHHHHMEPDFYHGFYPPTPLKTYPEEIFYIGKCTENMQPVGLDIGTNYTKITADGKNVLLYPSIVAYGEEKDWSLKGETKSVYIGDEALSIVQSMENVEVLRPLHEGRVLHTSYLELAKYGLNKLKVKDGLIATGLPVKSSKKEREELKRELESELNSKVLIFPEPVGTMAYMGMETGVCVDIGFGTTDVLVIADMEYLKGDTMLMGVDKLYENLEVAVRNRIGISITPEEMTKLLTTEGYEIGRIRGGKKVSVSREEIMPEYEGYVKTWVERIASRVKLVLEGLSTTLVENFAITGGGSMLPGVYEMFKESFSDIGDVKRPDEPIKANSIGYYILAKSLVVEAETEQSGDAEILDADDKKKGRKGKK”, the “soluble on expression in E. coli” value was “not soluble”.
For “MSLGQKVVAMLDFLLAYSDYSKDFRPLIIDQPEDNLDNRYIYRHLVQQFRDVKAQRQIILATHNATIVTNSMTDQVVIMESDGVNGWIESQGYVSEKYIKNHIINQLEGGKDSFKHKMSIYETALSEGHHHHHH”, the “soluble on expression in E. coli” value was “not soluble”.
For “MAIYSFKMENISRGEGQSSVNSAAYRHRKVFFDNRTGEVCGRKTAHKKDLAFAQIFAPENTPSDLIVDSETLWNAVEASEKRKDARLAKEFKIALPAELTPEQSIELTKAFVLEHFTKQGIITDVVIHDINGHNPHIHIMGTTREVLSTGFGKKVREWDKPETLDSWRKGWQNICNEFLDLYGHDERIDHRSIRVQYKEALEQATAAATNEEKAIWLAKAIETNRDPILHIPRDRWGTLAAQEQRAAEQAIRDEQKKEAVEAYFTFKDLPLDIVVDVASFRVHALAEPEEIVIPDNTGKGSSTGSQKPVLVAPVPHTRTTLKTPSTSTARTLKRAPVKVKRKKVEPRQSGVFKRFTLLVVDYIREKFVWAKKKPVPVSVDAEHDERIAENYVFDEVQGIYVPRAEHERRARFNSDTYSPTPDEIRRFPRRPLKPDQANNTLDYIPTFSWDRKPSVLQLKPSGYRDKELEHHHHHH”, the “soluble on expression in E. coli” value was “not soluble”.
For “MLRWITAGESHGRALVAVVEGMVAGVHVTSADIADQLARRRLGYGRGARMTFERDAVTVLSGIRHGSTLGGPIAIEIGNTEWPKWETVMAADPVDPAELADVARNAPLTRPRPGHADYAGMLKYGFDDARPVLERASARETAARVAAGTVARAFLRQALGVEVLSHVISIGASAPYEGPPPRAEDLPAIDASPVRAYDKAAEADMIAQIEAAKKDGDTLGGVVEAVALGLPVGLGSFTSGDHRLDSQLAAAVMGIQAIKGVEIGDGFQTARRRGSRAHDEMYPGPDGVVRSTNRAGGLEGGMTNGQPLRVRAAMKPISTVPRALATVDLATGDEAVAIHQRSDVCAVPAAGVVVETMVALVLARAALEKFGGDSLAETQRNIAAYQRSVADREAPAARVSGHHHHHH”, the “soluble on expression in E. coli” value was “soluble”.
With “MSLKTLATIGDNCVDIYPQLNKAFSGGNAVNVAVYCTRYGIQPGCITWVGDDDYGTKLKQDLARMGVDISHVHTKHGVTAQTQVELHDNDRVFGDYTEGVMADFALSEEDYAWLAQYDIVHAAIWGHAEDAFPQLHAAGKLTAFDFSDKWDSPLWQTLVPHLDFAFASAPQEDEALRLKMKAIVARGAGTVIVTLGENGSIAWDGAQFWRQAPEPVTVIDTMGAGDSFIAGFLCGWSAGMTLPQAMAQGTACAAKTIQYHGAEGHHHHHH” the “soluble on expression in E. coli” value was “soluble”.
With “MLSARYLHLHEALGLGPMWLKQAAAVLPPKNTPAPSAQARPQTVRAAPIRPSQPHNGQARLETMKALETAAVPTRKPAPETETPLPGLSDGIAPVPAASGITKLAVVSLCPPIEDAVYGQLFHGKAGILLDNILKAVGLDAAYVHKTCWVKTAAVGNPMPSEQAVANALGQIARELDGCRAPAVLFLGQAFVQPERQTMIETLCGSRPFFIIDHPARLLRQPELKARAWQVLKQLKRALRQGGGS” the “soluble on expression in E. coli” value was “not soluble”.
For “MAKVVSKANQSQGMLMFKLTLQQNFAIGTLKVREIVPYMPTTKIPYSHHHVIGTVTIRDLTVPVIDMSAAVGFRPITQEEYKNCYLIVTDCLRTVVAFMVRSIEKIIECDWKAIETPPASAGKNIFVTGITRYGDQTVQMLDVELLLSKIYPQYENANIPMLTDVERERLKA”, the “soluble on expression in E. coli” value was “not soluble”.
For “MSLEKKMEEKKKIKLIATDMDGTLVNDAKEVPASFAPWVLSHPDQQMVIASGRPYYTNEELFKEIKDHLIFIGDNGGLIYQQGQVLAKAGITAEEAKFCLDLFKDEPLANPILCGASQAICHDPKGDRNFLKQLDTYYIKRRYVEDLEAEVNSDEIIKFTVYIEGGAAESIYRQLPEMPGNLSAVLAGPEWIDIVNKDANKGAAVKKIADLKGIKQDEILAFGDYLNDLTMLEAAGTSYAMVNGHPDLKKIADHIAPSNNDEGVMQILRKLFDEGHHHHHH”, the “soluble on expression in E. coli” value was “soluble”.
With “MGSDKIHHHHHHYKKKFSGEILCAALWGVNLLIGTDSGLMLLDRSGQGKVYPLISRRRFDQMTVLEGQNILATISGRKRRIRVYYLSWLRQKILRTEGAGSANTTEKRNGWVNVGDLQGAIHFKIVRYERIKFLVVGLESSIEIYAWAPKPYHKFMSFKSFGSLSHVPLIVDLTVEDNARLKVLYGSTGGFHAIDLDSAAVYDIYTPAQSGQTTTPHCIVVLPNSNGMQLLLCYDNEGVYVNTYGRMTKNVVLQWGEMPSSVAYISTGQIMGWGNKAIEIRSVDTGHLDGVFMHKKAQKLKFLCERNDKVFFSSAKGGGSCQIYFMTLNKPGLTNW” the “soluble on expression in E. coli” value was “not soluble”.
For “MSQQEISIINLDQLVSMTSVEIAELTGKEHKHVLRDIRNMVEELNGAKTEHCSTLSSELNGSKFGLVGEEVYKDAKGESRTMYRLDRKHTFILVAGYSVHLRAKCYDHIQTLERRVLQLEDQKKRAAIQSANRRGVTWGDYCKTYGLPAQKLMTALLQHRGLFRKNPISNEWSVNPKYSDCFRIIKPSDQKFSAGGYNFRFNAKGLEVFGKPEMVDKMRGILIAFTGTDQQKQEHLLKLAQSGKVEGI”, the “soluble on expression in E. coli” value was “not soluble”.
In the case of “MGSDKIHHHHHHATSFTDSLDLTQYRNDVKTLASDAFGGRAPLSEGEQLTLDYLEKAFKEMGLKPAFGDSYLQAVPLAKISADQNMQLDIGGLKLANGSEFTARTQRIAEKVSLKNSDVVFVGYGINAPEYGWNDYQGLDVKGKTVIVLVNDPGFATQDPNVFKGNAMTYYGRWTYKYEEAARQGAEAVFIVHETAPAAYGWGVVQNSNTGTKFALVDTNNNQGQVGVMGWVQYEVAQNIFAKAGMNFDNLKQQAAKPNFKALPLKLRATLTLNNTIERAESHNVAALLPGKTRPDEVVMMHAHWDHLGTIIENGKPEILNGAVDNASGVAGVLALARYFKQQAEIAPLERSIIFSAFTAEETGLIGAQHFAQHPSVPTKDIVAFLNIDGMNVGQSVDYILRYGDGVSELEQYLDKAAKAQGRLVKADPRPQNGLMFRSDHFALAQQGVPGLLFMSLGDTDPDYIAHKYHQGADDYDPNWSLAGVSQDLELMAQMLTMLANSRDWPRWIESSDFKAKREQDGRN”, the “soluble on expression in E. coli” value was “not soluble”.
With “MPTVSVKWQKKVLDGIEIDVSLPPYVFKAQLYDLTGVPPERQKIMVKGGLLKDDGDWAAIGVKDGQKLMMMGTADEIVKAPEKAIVFAEDLPEEALATNLGYSAGLVNLGNTCYMNSTVQCLKSVPELKSALSNYSLAARSNDVDQTSHMLTVATRELFGELDRSVLRKKYPQFSQLQNGMHMQQDAEECWTQLLYTLSQSLKAPTSSEGADAVKALFGVNLQSRIKLGVLDNVTDSTVISKCTLHCQESGEESSETESVYSLKCHISHEVNHLHEGLKHGLKGELEKTSPALGRTALYVKESLIDSLPRYLTVQFVRFFWKRESNQKAKILRKVDYPLVLDIFDLCSEDLRKKLEAPRQKLREEEGKKLGLQTSAKSGSKDSDVKMTDAEASANGSGESSTVNPQEGTSSEKETHMTGIYDLVAVLTHKGRSADSGHYVAWVKQESGKWIQYDDDNPSMQREEDITKLSGGGDWHMAYITMYKARFVSM” the “soluble on expression in E. coli” value was “soluble”.
For “MKRLTIEMLPTLIGNEKLLVDCLFILFCTLKTKSLPPIRVLVRTNQSNLILDTLYEKLSKAVDKKLIFVASPEKPFDVIITDIFSEVSVKSTVPTYYVDFSASIGELAQSLENLNTQIVTKQSPRHF”, the “soluble on expression in E. coli” value was “not soluble”.
For “MIMNIFLIKEADLVEAAEIISASFKNYEVMRYLFNDSGNDHEAHITEFFLAFYQFGLANNWPCYGVRVNEQWVAVALGCNSSEQEIIKGSDDALTEFYKKISPQACCRIEQYDQQADAAHPSKAHFFIDSIGTHPDHQGKGYAKALILKFQELSKSDVHSTGVGLNTESDNNINFYQHLGYQVKAQQKIGSLTSWSLFRTDD”, the “soluble on expression in E. coli” value was “not soluble”.
In the case of “MGSDKIHHHHHHMKIGVNSYIVREMTGRGFSLDELNVDFVELGFDDAEIIKNDGEINMKILKDLSGLGIEFTIHAPTSDGKNFPIDFGEYFPIDLGTYRKTPIIKRMKKIIKVAEYLDASVIVVHGGDIKESYTKAYVNTLRNLRELKPITEDSGVKIVVENLFEGRIGALPHEVLSFAKEGFEVCFDIGHAFLTAIRTGLRVDEFEMLFPYTTHLHLHDNNGFRDEHKPIGEGIIGFSYVERVLELTNPERAVLEIRRYNKENSVLLNVEVLQEISRDFSQMKRLTEVVEP”, the “soluble on expression in E. coli” value was “not soluble”.
With “MGHHHHHHSHMFFKQFYDKHLSQASYLIGCQKTGEAMIIDPIRDLSSYIRVADEEGLTITHAAETHIHADFASGIRDVAIKLNASIYVSGESDDTLGYKNMPNQTHFVQHNDDIYVGNIKLKVLHTPGHTPESISFLLTDEGAGAQVPMGLFSGDFIFVGDIGRPDLLEKAVKVEGSSEIGAKQMFKSIESIKDLPNYIQIWPGHGAGSPCGKSLGAIPTSTLGYEKQTNWAFSENNEATFIDKLISDQPAPPHHFAQMKKINQFGMNLYQPYTVYPATNTNRLTFDLRSKEAYHGGHIEGTINIPYDKNFINQIGWYLNYDQEINLIGEYHLVSKATHTLQLIGYDDVAGYQLPQSKIQTRSIHSEDITGNESHILDVRNDNEWNNGHLSQAVHVPHGKLLETDLPFNRNDVIYVHCQSGIRSSIAIGILEHKGYHNIINVNEGYKDIHLS” the “soluble on expression in E. coli” value was “not soluble”.
In the case of “MGSDKIHHHHHHMNSPAMSPNTLGIDFGTSNSAAGLAVAGRPWLVELEPGETTLPTAVFFDSDSKKMRIGRSATRALIEGEEGRFMRALKSLLGTSLLYEKRRLGGVTMDFTDVIAHFLREVKTRAETATRMEFTHALSGRPVKFHSKDETRNARAEEDLRHCYKKAGFQDVTFMYEPEAALRAARPHPGIGLVVDIGGGTSDFTCFEQDATGGTRILASHGLRLGGTDFDRQISIDHVMPHLGRGAMIRNSFGEGSLPAPNRIFNDLATWQMIPFLYGLDTRRAARDLAQNAEDPTTLNRLVQVLEDELGHDLAFATEAGKIRANGSDDAGAQIDLRLIERGLSAALPRAALEASLAQMVREIQDEAKETLRLADVAPEAVTRCVMVGGSALLMAVRAALQDLCPTAEIETERALTAVADGLALETQDGAA”, the “soluble on expression in E. coli” value was “not soluble”.
With “KMFFKVIDTLSDNYEKEMLLLEAEAKEQYYQELEKSSREVRKIKHDLKNMLLAICGKAKKQNEISEEIYKIIKELDESDKKIYTSNVVINTIINHKISQAKKLEIKTDVNIKVSKAIHIDYKDAGILLGNILDNAIEACEKIKKKERWIKIDMLHNKNTLFIEVCNSKGKELTNISKSSKSDAHNHGIGISSIKAITKKYDGYVEFVDKGEEFEVVVNLYGMSF” the “soluble on expression in E. coli” value was “not soluble”.
For “MSLDVSLKLKGIDGALEDNVKAYLSSIPEKDYSTSLRFQARLDQSITEALNALGYYHAKISYSISEGNDELIVNIHKGLPVKIKVMDVVISGEAKEDEEFTNLIAKSPLKVGRILNQGEYDSLKSGIRNLALQRGYFNGDFKLNKLEVIPELNEANVRLHYDSGIRYHFGPVEITGSQIWENRVESMRPFEIGEPYLVSDVGEYNQNLSNTDWFSSVFVEPDLSKLEDGRELPIKVSLAPAAKNQIETGIGYSTDTGVRGTLKWKKPWVSARGHSFNTALSLSKPEQTITAGYKIPLDDVLREYYQLQFGLKHLDNRDTESLESNLAVERHWLTDGGWHKTVYVRHLYENFSQGLQDDGVQFVLPGATFSRTRVRGGSMPMWGDKQSVTVEYGDPALLSETRVLRLLGRSSWIRGIGENHRGLFRLEGGANITEEFEKLSPSLRFFAGGDNNIRGYGYESISPVDESGALTGAKYILSSTLEYQYRVYGNWWAATFYDIGDAFNDTPEWKSGAGVGIRWASPVGPVSFDFAWGLDEKPNNEFRIHFSLGPELEGHHHHHH”, the “soluble on expression in E. coli” value was “not soluble”.
